What all share (conditions): both partners purified
Experiment [1] has as its target T1, 10E8-GT10.2 epitope scaffold (designed scaffold 10E8-GT10.2 with …, N-linked glycosylation sites added (positions not given)).
T1 chain: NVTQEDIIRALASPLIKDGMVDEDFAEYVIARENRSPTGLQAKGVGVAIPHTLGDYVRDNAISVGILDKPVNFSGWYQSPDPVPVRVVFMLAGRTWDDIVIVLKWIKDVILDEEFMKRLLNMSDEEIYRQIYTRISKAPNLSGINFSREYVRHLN
Put plainly: SPR; values told in the text, methods or extended data without a main figure; instrument not told (Carterra LSA, ProteOn XPR36 with GLC chip or Biacore 4000 with CM5 chip). (In general: SPR reads the build-up and loss of mass on a sensor chip optically.)

The target in a further experiment is T2, 10E8-B1 epitope scaffold (synthetic construct (resurfaced …)).
T2 chain: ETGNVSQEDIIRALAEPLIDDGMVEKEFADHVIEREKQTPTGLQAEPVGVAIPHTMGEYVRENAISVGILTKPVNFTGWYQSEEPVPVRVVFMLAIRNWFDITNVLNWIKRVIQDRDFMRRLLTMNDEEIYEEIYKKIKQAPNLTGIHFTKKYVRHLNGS
Put plainly: SPR; Carterra LSA, HC30M or CMDP chips; antibodies as ligands held by an amine-coupled capture antibody, scaffolds as analytes (monovalent Kd); 1x HBS-EP+ pH 7.4 with 1 mg/ml bovine serum albumin; Langmuir model; values of the main text figures.

The next experiment concerns the target T3, T117v2 epitope scaffold (designed scaffold T117v2 with HIV-1 …).
T3 chain: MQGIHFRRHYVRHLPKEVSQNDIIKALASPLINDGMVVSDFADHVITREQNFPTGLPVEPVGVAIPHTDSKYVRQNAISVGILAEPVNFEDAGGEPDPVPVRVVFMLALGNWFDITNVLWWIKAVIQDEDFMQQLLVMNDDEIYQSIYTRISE
Put plainly: SPR; values told in the text, methods or extended data without a main figure; instrument not told (Carterra LSA, ProteOn XPR36 with GLC chip or Biacore 4000 with CM5 chip).

Experiment [2] addresses T4, 10E8-GT10.1 epitope scaffold (synthetic construct, circularly …, N-linked glycosylation sites added (positions not given)).
T4 chain: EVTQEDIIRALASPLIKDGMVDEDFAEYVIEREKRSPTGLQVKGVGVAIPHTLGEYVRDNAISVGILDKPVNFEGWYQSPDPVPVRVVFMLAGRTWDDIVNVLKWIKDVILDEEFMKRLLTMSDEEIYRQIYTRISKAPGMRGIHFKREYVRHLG
Put plainly: SPR; Carterra LSA, HC30M or CMDP chips; antibodies as ligands held by an amine-coupled capture antibody, scaffolds as analytes (monovalent Kd); 1x HBS-EP+ pH 7.4 with 1 mg/ml bovine serum albumin; Langmuir model; values of the main text figures.

The text below walks through data of PMC11147780, “Vaccination induces broadly neutralizing antibody precursors to HIV gp41” (Nature Immunology, 2024).

B1: NHP W3-01 Fab (Fab, V domains shown)
VH: QVQLQESGPGLVKPSETLSLTCAVSGGSFSSDWWGWIRQPPGKGLEWIGTIYGSGGSNYLNPSLKSRVTLSVDTSKNQFSLRLSSVTAADTAVYYCARGSGRYNIWTGYYTPFDAFDFWGRGLRVTVSS
VL: SYELTQPPSMSVSPGQTARITCGGDNLGSKYVHWYQQKPAQAPVLVIYYDSDRPSGIPERFSGSKSGNTATLTISGVEAGDEADYYCQVWDSSSDHYIFGAGTRLTVL
notes: also called 10E8-GT10.2-induced macaque antibody with a YxIW motif from week 3
Consider B1, for which the affinity in experiment [1], expressed as Kd, was 4.8 nM.

B2: mature 10E8 broadly neutralizing antibody (antibody, V domains shown)
VH: EVQLVESGGGLVKPGGSLRLSCSASGFDFDNAWMTWVRQPPGKGLEWVGRITGPGEGWSVDYAAPVEGRFTISRLNSINFLYLEMNNLRMEDSGLYFCARTGKYYDFWSGYPPGEEYFQDWGRGTLVTVSS
VL: SYELTQETGVSVALGRTVTITCRGDSLRSHYASWYQKKPGQAPILLFYGKNNRPSGVPDRFSGSASGNRASLTISGAQAEDDAEYYCSSRDKSGSRLSVFGGGTKLTVL
notes: also called 10E8 bnAb; source: FreeStyle 293F cells or ExpiCHO (high-throughput), purified (protein A)
With B2, the Kd (in general, the free concentration of one partner at which half of the binding sites on the other are occupied at equilibrium, for simple one-to-one binding) with 10E8-B1 epitope scaffold amounted to 0.08 nM; with T117v2 epitope scaffold, 0.39 nM.

B3: 10E8 unmutated common ancestor antibody (antibody, V domains shown)
VH: not shown
VL: SSELTQDPAVSVALGQTVRITCQGDSLRSYYASWYQQKPGQAPVLVIYGKNNRPSGIPDRFSGSSSGNTASLTITGAQAEDEADYYCNSRDSSGNHLVVFGGGTKLTVL
notes: also called 10E8 UCA; proposed 10E8 UCA; source: FreeStyle 293F cells or ExpiCHO (high-throughput), purified (protein A)
B3: the Kd in experiment [2] is around 600 nM.
